We go through 13 molecules from US20240084003A1 (SIMCERE ZAIMING PHARMACEUTICAL, published 2024).

Numbering of substitutions follows the chain as printed.

The EC50 is the concentration giving half of the maximal effect.

First the molecules themselves.
T1: monkey CD22 on HEK293T-monkey CD22 cells (monkey)
T1 construct: full-length entry expressed on stably transfected HEK293T cells
T1 chain: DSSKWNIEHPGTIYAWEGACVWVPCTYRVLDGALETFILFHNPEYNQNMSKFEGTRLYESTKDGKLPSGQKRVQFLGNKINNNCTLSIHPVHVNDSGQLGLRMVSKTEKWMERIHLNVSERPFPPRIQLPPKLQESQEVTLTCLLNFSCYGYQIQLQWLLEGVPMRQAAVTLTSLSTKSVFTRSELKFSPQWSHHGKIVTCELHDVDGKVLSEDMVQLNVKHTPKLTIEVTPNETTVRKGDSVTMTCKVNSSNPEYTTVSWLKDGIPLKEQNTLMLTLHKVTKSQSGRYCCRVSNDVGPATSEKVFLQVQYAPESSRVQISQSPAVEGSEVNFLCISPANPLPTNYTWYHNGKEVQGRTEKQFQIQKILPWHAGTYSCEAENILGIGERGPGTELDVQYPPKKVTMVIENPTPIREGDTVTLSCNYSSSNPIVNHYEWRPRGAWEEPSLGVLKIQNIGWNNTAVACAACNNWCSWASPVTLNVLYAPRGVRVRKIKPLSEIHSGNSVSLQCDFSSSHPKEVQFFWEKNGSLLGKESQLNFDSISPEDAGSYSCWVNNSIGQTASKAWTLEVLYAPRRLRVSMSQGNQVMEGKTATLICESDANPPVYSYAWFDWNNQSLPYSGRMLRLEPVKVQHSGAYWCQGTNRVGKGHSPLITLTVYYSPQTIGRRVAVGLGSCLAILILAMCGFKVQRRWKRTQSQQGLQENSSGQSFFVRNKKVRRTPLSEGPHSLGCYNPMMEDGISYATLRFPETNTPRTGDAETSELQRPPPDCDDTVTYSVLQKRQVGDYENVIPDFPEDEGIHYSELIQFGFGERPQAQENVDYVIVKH

B1: F2.343.16 (antibody, human IgG1, lambda, V domains shown)
VH: QVQLKQSGPGLVQPSQSLSITCTVSGFSLTGYGVQWVRQSPGKGLEWLGVIWGGGGTDYNAAFISRLNIIKDNSKSQVFFKMNSLQADDTAIYYCARYSKYGHFDVWGTGTAVTVSS
VL: QAVVTQESALTTSPGETVTLTCRSSTGAVTTSNYANWVQEKPDHLFTGLIGGTYNRVPGVPARFSGSLIGDKAALTITGAQTEDEAIYFCALWYSNHFWVFGGGTKLTVLG
notes: human-murine chimeric IgG1 lambda; VL name legible
B2: HA22-hIgG1 (antibody, V domains shown)
VH: EVQLVESGGGLVKPGGSLKLSCAASGFAFSIYDMSWVRQTPEKCLEWVAYISSGGGTTYYPDTVKGRFTISRDNAKNTLYLQMSSLKSEDTAMYYCARHSGYGTHWGVLFAYWGQGTLVTVSA
VL: DIQMTQTTSSLSASLGDRVTISCRASQDISNYLNWYQQKPDGTVKLLIYYTSILHSGVPSRFSGSGSGTDYSLTISNLEQEDFATYFCQQGNTLPWTFGCGTKLEIKR
B3: F2.205.9 (antibody, human IgG1, lambda, V domains shown)
VH: QVTLKESGPGILQPSQTLSLTCSFSGFSLSTSGMGVGWIRQPSGKGLEWLAHIWWDDDEYYNPALKSRLTISKDTSKNQVFLKIANVDTADTATYYCARISIPYGYYDWFFDVWGTGTTVTVSA
VL: QAVVTQESALTTSPGETVTLTCRSSTGAVTTRNYANWVQEKPDHLFTGLIGGTNNRAPGVPARFSGSLIGDKAALTITGAQTEDEAIYFCALWYSNHFIFGSGTKVTVLG
notes: as for B1
B4: F2.151.13 (antibody, human IgG1, lambda, V domains shown)
VH: QVHLQQPGTELMKPGASVKLSCKATGYTFRDYWLEWVKQRPGHGLEWIGEILPGSGNAYYNEKFKGKATFTADTSSNTAYMQLSSLTTEDSAIYYCARVYSNWYFDAWGKGTTVTVSS
VL: B3 VL with R32S, R56Q, T78S, Y94F, F98W, I99V, S102G, V106L
notes: human-murine chimeric IgG1 lambda
B5: F2.121.9 (antibody, human IgG1, lambda, V domains shown)
VH: EVQLVESGGGLVKPGGSLKLSCAASGFTFSDYVMSWIRQTPEKRLEWVATISDAGSYTFYPDNLKGRFTISRDNAKNNLYLQMNHLTSEDTAFYYCAIIYFGNYGGYWGQGTLVTVSV
VL: QAVVTQESALTTSPGGTVVLTCRSNTGAVTTSNYANWVQEKPDHLFTGLIGGTSNRAPGVPVRFSGSLIGDKAALTITGAQTEDDAMYFCALWYSTHWVFGGGTKLTVLG
notes: as for B4
B6: F2.70.2 (antibody, human IgG1, lambda, V domains shown)
VH: EVQLVESGGGLVKPGGSLKLSCAASGFTFSDYGMNWFRQAPEKGLEWVAYISRGSHTIYYADTVKGRFTISRDNAKNTLFLQMTSLRSNDTAMYYCVRMAGYYAMDYWGQGTSVTVSS
VL: QLVLTQSSSASFSLGASAKLTCTLSSQHSSYIIEWYQQQPLKPPKYVMELKKDGSHSTGDGIPDRFSGSSSGADRYLSISNIQPEDEAIYICGVGDTIKEQFVYVFGGGTKVTVLG
notes: as for B4
B7: F2.173.9 (antibody, human IgG1, lambda, V domains shown)
VH: EVQLVESGGDLVKPGESLKLSCEASGFTFSNYAMSWVRQTPDRRLEWVATISSIGSFTYYSDSVKGRFTISRDNVKSTLHLQMNNLKSGDTAIYFCARLGVYFDSWGQGTTLTVSS
VL: B6 VL with S30T, I32T, L41H, Y46F, L50I, S57Y, A88T, G95S, T97M, E100D
notes: as for B4
B8: F2.180.16 (antibody, human IgG1, lambda, V domains shown)
VH: EVKLVESGGGLVLPGGSLKISCAASGFTFSDYYMYWIRQTPDKRLEWVAYISNTGYSTFYPDSVKGRFTVSRDNAKNTLYLQMSRLQSEDTAMYYCARHGILYAMDYWGQGTSVTVSS
VL: B6 VL with L2P, H28Y, S30T, I32T, E34G, K52H, H56R, S57H, I89T, V103M
notes: as for B4
B9: F2.104.10 (antibody, human IgG1, lambda, V domains shown)
VH: B6 VH with L11F, K76E, V114L
VL: B6 VL with L50V, P84S
notes: as for B4
B10: F2.55.1 (antibody, human IgG1, lambda, V domains shown)
VH: QVTLKESGPGILQPSQTLSLTCSFSGFSLSTFPLGVGWIRQPSGKGLEWLAHVWWNDDDYYNPALKSRLTISKDTSNTRVFLSVASVDTAETATYYCARLNWDRWYFDVWGTGTTVTVSS
VL: QLVLTQSSSASFSLGASAKLTCTLSSQHSAYTVEWYQQQPLKPPKYVMELKKDGSHSTGDGIPDRFSGSSSGADRYLSISNIQPEDEAIYICGVGDTVKEQFVFGGGTKVTVLG
notes: as for B1
B11: F1.245.2 (antibody, human IgG1, kappa, V domains shown)
VH: EVQLQQSGAELVKPGASVKLSCTGSGFNIKDYYIHWVKQRTEQGLEWMGRIDPEDGETEYAPKFQDEATITSDTSSNTAYLQLSSLTYEDTAVYYCAREAAGYFYRGSSYGYFDVWGTGTTVTVSS
VL: DFQMTQTTSFLSASLGDRVTISCSASQDISNYLNWYQQKPDGTVKLLIYYTSSLHSGVPSRFSGSGSGTDYSLTISNLEPEDIATYYCQQYSMLPYTFGGGTKLEMER
notes: human-murine chimeric IgG1 kappa
B12: F1.60.9 (antibody, human IgG1, kappa, V domains shown)
VH: QVQLKESGPGLVAPSQSLSITCTVSGLSLNNYGVSWVRQPPGKGLEWLGVIWGDGSTNYHSALISRLSISKDNSKSQVFLKLNSLHTDDTATYYCAINWGDYWGQGTTLIVSS
VL: DIKMTQSPSSMNASLGERVTITCKASQDINSYLSWFQQKPGKSPKILIYRANRLIDGVPSRFSGSGSGQDYSLTISSLEYEDMGIYYCLQYGVFPLTFGAGTKLELKR
notes: as for B11
B13: F1.257.3 (antibody, human IgG1, kappa, V domains shown)
VH: QVQLQQSGPELARPGASVKLSCKASGYTFTSYGISWVKQRTGQDLEWIGEIYPKLGTTYYNEKFKDKATLTTDRSSSTAYMALRSLTSEDSAVYFCACPHYYATRGGDYWGQGTTLTVSS
VL: EIVLTQSPATLSVTPGDSVTFSCRASQSISNHLHWYQQKSHESPRLLIRYASQSISGIPSRFSGSGSGTDFTLSLSSVETEDFGVYFCQQSHSWPYTFGGGTKLEIAR
notes: human-murine chimeric IgG1 kappa; VL name legible

In one experiment the target is T1, monkey CD22 on HEK293T-monkey CD22 cells. Put plainly: FACS, HEK293T-monkey CD22 cells. How it is done: (§1) For suspension cell Raji, the medium supernatant was directly centrifuged and discarded, and the cell pellet was washed 2 times with PBS. After counting the cells in the previous step, the cell pellet was resuspended with [PBS+2% (w/w) BSA] blocking solution to 2×10⁶ cells/ml, and added to a 96-well FACS reaction plate at 50 μl/well, and then the chimeric antibody test sample was added at 50 μl/well, and incubated on ice for 2 hours. The mixture was centrifuged and washed 3 times with PBS buffer, Alexa Flour 488-labeled secondary antibody (purchased from Invitrogen, catalog number: A-11013) was added at 50 μl/well, and incubated on ice for 1 hour. The obtained mixture was centrifuged and washed 5 times with PBS, and FACS (FACS Canto™, purchased from BD Company) was used for detection and result analysis. Data analysis was performed by software (CellQuest) to obtain the mean fluorescence density (MFI)of the cells. And then software (GraphPad Prism8) was used for analysis, data fitting, and EC50 value calculation. […] The same method was used to detect the binding of the chimeric antibodies to endogenous CD22-negative cell MoLT4 cells (purchased from ATCC, CRL-1582) and CHO-K1 cells.
(§2) HEK293T-monkey CD22 cells were subjected to FACS detection and data analysis according to the method in Example 5.2.
For orientation: Flow cytometry measures light scatter and fluorescence of single cells or particles in a stream.
For the molecule B1, the “Maximum mean fluorescence intensity” value was found to be 83 MFI.
For B2, the EC50 was found to be 1.59 nM and the “Maximum mean fluorescence intensity” value turned out to be 31200 MFI.
In the case of B3, the EC50 was found to be 0.4 nM and the “Maximum mean fluorescence intensity” value was 25400 MFI.
Take B4: the EC50 is 1.26 nM and the “Maximum mean fluorescence intensity” value was 30500 MFI.
The corresponding values for B5 are 0.97 nM and 19900 MFI.
Consider B6, for which the “Maximum mean fluorescence intensity” value worked out at 409 MFI.
For the molecule B7, the EC50 was 2.1 nM and the “Maximum mean fluorescence intensity” value was determined as 22700 MFI.
For B8, the “Maximum mean fluorescence intensity” value was 69 MFI.
As to B9, the “Maximum mean fluorescence intensity” value was 251 MFI.
In the case of B10, a half-maximal response (EC50) required 34.7 nM and the “Maximum mean fluorescence intensity” value is 5760 MFI.

For a further experiment the target is unchanged. Kind of experiment: FACS, HEK293T-monkey CD22 cells, EC50 column. How it is done: as §1, §2
For B1, the binding result is given as “no binding”.
Still for that read-out and setting: with B11 the entry was “no binding”; with B12, “no binding”.
The same measure, in the same setting: with B13 the entry was “no binding”; with B6, “no binding”.
As for B8, the binding result was “no binding”.
Turning to B9, the binding result is given as “no binding”.
